Like-named read-outs stand apart in the source and are kept apart here.
Experiments:
[1] = test system: γC-399tr-induced apoptosis; assay: Blocking of γC-399tr-induced apoptosis by MAPK inhibitors (FIG. 6); assay type: cell-based
Procedure: 10 μM of inhibitor is the saturating concentration.
It was further observed that endothelial cell apoptosis induced by γC-399tr can be blocked by p38 MAP kinase inhibitor SB-203580 but not inhibitors of some other MAP kinases.

[2] = test system: DLD-1 human colon adenocarcinoma cells; assay: Tumor growth of DLD-1 xenograft in SCID mice; assay type: in vivo; conditions: injections of recombinant γC-399tr in PBS
Procedure: Human breast adenocarcinoma BT20 cells are subcutaneously injected into 7-9-week-old male non-obese diabetes/severe combined immunodeficiency (NOD/SCID) mice. The animals are divided into 4 groups, each having 5 animals. Each animal receives 2×10^6 cells in the injection. The treatment groups, Groups 1-3, are injected daily intraperitoneally with recombinant γC. The control group, Group 4, receives injections of equal volumes of PBS each day. The dimensions of the tumors are measured and the tumor volumes are calculated. After two weeks of treatment, the animals are sacrificed and the tumors are excised, sectioned, and evaluated histologically. To examine the tumor vasculatures, the tumor sections are stained by CD31 anti-mouse monoclonal antibody (PharMingen, San Diego, Calif.). Tumor size and the extent of tumor vasculature are compared among all treatment and control groups.
Following the general procedure described in Example 2, DLD-1 human colon adenocarcinoma cells were injected into SCID mice. Subsequently, the treatment groups of mice received injections of recombinant γC-399tr in PBS, whereas the control group received PBS injections.

[3] = test system: Bovine Arterial Endothelial (BAE) cell; assay: Growth arrest of BAE cells in culture (FIG. 1); assay type: cell-based
Procedure: FIG. 1. Fibrinogen γC-induced growth arrest of Bovine Arterial Endothelial (BAE) cell. […] Fragment D required much higher concentrations (100 μg/ml) to induce detectable apoptotic effects.

MAP kinases Erk1 and 2 = assay: Activation of MAP kinases Erk1 and 2, western blotting in β3-CHO cells (FIG. 4); assay type: cell-based, Chinese hamster; conditions: soluble γC in the medium, 30 min
Procedure: FIG. 4. Fibrinogen γC-induced activation of MAP kinases Erk1 and 2. CHO cells expressing recombinant αvβ3 (β3-CHO cells) were incubated with soluble γC at indicated concentrations for 30 min and the levels of MAP kinases (Erk1 and 2) were determined by western blotting with anti-phosphorylated Erk 1 and 2.
It remains a possibility that γC acts as an antagonist and blocks signaling from other integrin ligands by competing for binding to integrins.

BAE cells [4] = assay: MTS (CellTiter96) proliferation assay, BAE cells (FIG. 2); assay type: cell-based, bovine
Procedure: (§1) FIG. 2. […] The numbers of proliferating cells were determined using a tetrazolium compound MTS (CellTiter96® assay).

[5] = test system: calf pulmonary artery endothelial (CPAE) cells; assay: CPAE proliferation / apoptosis, MTS and Phosphate assay (FIG. 5); assay type: cell-based
Procedure: FIG. 5. Inhibition of CPAE Proliferation induced by fibrinogen γC and γC-399tr. CPAE proliferation was measured by using a MTS and Phosphate assay. 10% serum-induced proliferation was inhibited by γC in a concentration-dependent fasion 48 hours passed after 1×10^5/ml. The γC-399tr is approximately 3 times more efficient in inducing apoptosis of CPAE cells.
A deletion mutant of γC that has 12 amino acids truncated from the C-terminal of γC, termed γC-399tr (having the amino acid sequence of 1-249 of SEQ ID NO:3), was recombinantly produced and purified.

CHO cells = assay: MTS (CellTiter96) proliferation assay, CHO cells (FIG. 2); assay type: cell-based, Chinese hamster
Procedure: as §1

BAE cells [6] = assay: Annexin V / propidium iodide binding, flow cytometry, apoptosis of BAE cells (FIG. 3); assay type: cell-based, bovine
Procedure: FIGS. 3A and 3B. […] BAE cells were treated with 10 μg/ml recombinant soluble γC or native fibrinogen for the indicated time. The binding of annexin V or propidium iodide (PI) to the treated BAE cells was measured in flow cytometry (FIG. 3A).

β3-CHO cells = assay: MTS (CellTiter96) proliferation assay, β3-CHO cells (FIG. 2); assay type: cell-based, Chinese hamster
Procedure: as §1

caspase-3 and caspase-7 = assay: Activation of caspases by γC in CPAE cells; assay type: cell-based, calf; conditions: protein expression and enzymatic activity

Molecule: C[S+]([O-])c1ccc(-c2nc(-c3ccncc3)c(-c3ccc(F)cc3)[nH]2)cc1 (stereo not drawn) [SB-203580]
- saturating concentration of inhibitor for blocking γC-399tr-induced apoptosis [1]: 10 µM
- blocking of γC-399tr-induced apoptosis ([1]; endothelial cell): blocks

B1: γC-399tr: Deletion mutant of γC with 12 amino acids truncated from the C-terminal; amino acid sequence 1-249 of SEQ ID NO:3 (protein, listed as Homo sapiens)
chain: KDCQDIANKGAKQSGLYFIKPLKANQQFLVYCEIDGSGNGWTVFQKRLDGSVDFKKNWIQYKEGFGHLSPTGTTEFWLGNEKIHLISTQSAIPYALRVELEDWNGRTSTADYAMFKVGPEADKYRLTYAYFAGGDAGDAFDGFDFGDDPSDKFFTSHNGMQFSTWDNDNDKFEGNCAEQDGSGWWMNKCHAGHLNGVYYQGGTYSKASTPNGYDNGIIWATWKTRWYSMKKTTMKIIPFNRLTIGEGQQ
modifications: C-terminal region of fibrinogen gamma chain, isoform gamma-A, residues 177-437
- tumor size versus PBS control group [2]: reduced tumor size

B2: γC: Fibrinogen γ-chain C-terminal domain, 30 Kd, about 250 amino acid residues, sequence as set forth in SEQ ID NO:3 (protein, listed as Homo sapiens)
chain: KDCQDIANKGAKQSGLYFIKPLKANQQFLVYCEIDGSGNGWTVFQKRLDGSVDFKKNWIQYKEGFGHLSPTGTTEFWLGNEKIHLISTQSAIPYALRVELEDWNGRTSTADYAMFKVGPEADKYRLTYAYFAGGDAGDAFDGFDFGDDPSDKFFTSHNGMQFSTWDNDNDKFEGNCAEQDGSGWWMNKCHAGHLNGVYYQGGTYSKASTPNGYDNGIIWATWKTRWYSMKKTTMKIIPFNRLTIGEGQQHHLGGAKQAGDV
modifications: C-terminal region of fibrinogen gamma chain, isoform gamma-A, residues 177-437
- proliferation of BAE cells ([3]; 12.5 μg/ml each in culture media, 1×10^4 cells per well, 48 hours): blocked proliferation
- concentration blocking proliferation of BAE cells ([3]; FIG. 1 as cited): less than 1 μg/ml
- concentration inducing MAP kinase activation (MAP kinases Erk1 and 2): less than 1 μg/ml
- level of γC effectively blocking proliferation of BAE cells (BAE cells [4]): below 1 μg/ml
- proliferation of BAE cells in the MTS assay (BAE cells [4]): blocked proliferation
- apoptosis in CPAE cells [5]: induced apoptosis
- 10% serum-induced CPAE proliferation ([5]; 48 hours, 1×10^5/ml): inhibited
- effect on proliferation of CHO cells (CHO cells): little or no effect
- effect on proliferation of CHO cells (CHO cells; listed as γC domain): not
- induction of apoptosis of BAE cells (BAE cells [6]; 10 μg/ml, annexin V / PI binding): induced apoptosis
- time at which apoptosis of BAE cells was detectable (BAE cells [6]; 10 μg/ml, annexin V / PI flow cytometry): 2 to 4 h
- time in which apoptosis of BAE cells was induced (BAE cells [6]; annexin V binding assays): 2 to 4 h
- effect on proliferation of β3-CHO cells (β3-CHO cells): little or no effect
- effect on proliferation of β3-CHO cells (β3-CHO cells; listed as γC domain): not
- activation of caspase-3 and caspase-7 (caspase-3 and caspase-7): activation of caspase-3 and caspase-7

— US20060019871A1, “Endothelial cell apoptosis induced by fibrinogen gamma chain C-terminal fragment” (The Regents of the University of California, priority 2004, published 2006)
